Values quoted from earlier work in publication PMC3726680.
pKd: −log10 of the molar value.

Target: HER2 (Homo sapiens) (UniProt P04626)

## trastuzumab
  pKd: 10.00
